# Measured values as given in US20250152627A1, “COMPOSITIONS AND METHODS FOR ENHANCING IMMUNE CELL FUNCTION USING MODIFIED CELLS WITH GLYCOCALYX EDITING ENZYMES” (Cornell University, priority 2021, published 2025).
# Experiments:
# NK-92 cell surface = assay: Flow cytometry of StcE surface level on NK-92 cells (anti His-tag); type: cell-based; conditions: after washing with buffer; no additional molecular tether
# Experimental: Cells were plated, grown for 24 hours, and then induced with various concentrations of doxycycline for 24 hours. Adherent cells were detached by incubating with Accutase (Innovative Cell Technologies) at 37° C. for 10 minutes. GFP nanobody conjugated Alexa Fluor 647, Neutravidin conjugated DyLight 650, CF640R PNA, Alexa Fluor 647 HPA, and biotin MAL-II were diluted 1:200 in 0.5% BSA PBS and incubated with cells at 4° C. for 30 minutes for each stain. For analysis of Muc1 cell surface expression level, anti-Human Muc Clone HMPV was diluted 1:200 in 0.5% BSA PBS and incubated with cells at 4° C. (for 1 hour. Secondary labelling was with Alexa Fluor 647 conjugated goat anti-mouse, diluted 1:1000 in 0.5% BSA PBS and incubated with cells at 4° C. for 1 hour. For analysis of StcE mucinase binding to NK-92 cells, NK cells were incubated with StcE at 37° C. for 1 hour. Cells were thoroughly washed to remove StcE and coculture with target cells. Anti-6× His-tag antibody was diluted 1:100 in 0.5% BSA PBS and incubated with cells at 4° C. for 1 hour. Secondary labelling was with Alexa Fluor 647 goat anti-rabbit IgG, diluted 1:500 in 0.5% BSA PBS or FluoTag-X2 anti-AFLA conjugated with Alexa Fluor 647 was diluted 1:200 in 0.5% BSA PBS and incubated with cells at 4° C. for 1 hour. […]
# [1] = tested on: Muc1-GFP expressing 1E7 cells; assay: Removal of cell-surface mucin from 1E7 cells (confocal imaging, GFP nanobody); type: cell-based; conditions: 100 nM enzyme
# Experimental: FIG. 11. StcE mucinase effectively remove cell-surface mucin on 1E7 clone and NK cell. (A) Representative confocal images of Muc1-GFP expressing 1E7 cells with and without treatment with 100 nM StcE, StcE ΔX409, or StcE-EE Zip; Alexa Fluor 647 conjugated to GFP nanobody is used to probe cell-surface Muc1-GFP constructs. (Scale bar, 10 μm). (B) Quantification of mean fluorescence intensity of Muc1-GFP and cell-surface Muc1-GFP probed with GFP nanobody in 1E7 cells treated with the indicated concentration of StcE mucinase; results are shown for induction of Muc1-GFP at 100 ng/ml and 1000 ng/ml doxycycline. (C) Cytotoxicity of NK-92 cells against 1E7 cells treated with control buffer, 100 nM StcE mucinase, or 5,000 U/mL PNGase F for 1 hour; Muc1-GFP induction is at the indicated doxycycline concentration (1,100, and 1,000 ng/ml); NK cell to target cell ratio is 5:1. (D) Flow cytometry analysis of mucin levels on NK-92 cells following incubation with control buffer or 100 nM recombinant StcE or StcE ΔX409; StcE surface level after incubation probed with anti His-tag antibody and cell-surface mucin level probed with catalytically dead StcE E447D conjugated to Cy5. Statistical significance is given by ns—not significant, *P≤0.05, **P≤0.01, ***P≤0.001, ****P≤0.0001. Results are a representative dataset from 3 independent replicates. […]
molecule,measurement,setting,value
StcE-ΔX409: StcE with a deleted C-terminal X409 lectin domain; NK cells treated with it: StcE-ΔX409 NK (protein) ADNNSAIYFNTSQPINDLQGSLAAEVKFAQSQILPAHPKEGDSQPHLTSLRKSLLLVRPVKADDKTPVQVEARDDNNKILGTLTLYPPSSLPDTIYHLDGVPEGGIDFTPHNGTKKIINTVAEVNKLSDASGSSIHSHLTNNALVEIHTANGRWVRDIYLPQGPDLEGKMVRFVSSAGYSSTVFYGDRKVTLSVGNTLLFKYVNGQWFRSGELENNRITYAQHIWSAELPAHWIVPGLNLVIKQGNLSGRLNDIKIGAPGELLLHTIDIGMLTTPRDRFDFAKDKEAHREYFQTIPVSRMIVNNYAPLHLKEVMLPTGELLTDMDPGNGGWHSGTMRQRIGKELVSHGIDNANYGLNSTAGLGENSHPYVVAQLAAHNSRGNYANGIQVHGGSGGGGIVTLDSTLGNEFSHEVGHNYGLGHYVDGFKGSVHRSAENNNSTWGWDGDKKRFIPNFYPSQTNEKSCLNNQCQEPFDGHKFGFDAMAGGSPFSAANRFTMYTPNSSAIIQRFFENKAVFDSRSSTGFSKWNADTQEMEPYEHTIDRAEQITASVNELSESKMAELMAEYAVVKVHMWNGNWTRNIYIPTASADNRGSILTINHEAGYNSYLFINGDEKVVSQGYKKSFVSDGQFWKERDVVDTREARKPEQFGVPVTTLVGYYDPEGTLSSYIYPAMYGAYGFTYSDDSQNLSDNDCQLQVDTKEGQLRFRLANHRANNTVMNKFHINVPTESQPTQATLVCNNKILDTKSLTPAPEGLTYTVN,binding and retention on the NK-92 cell surface,NK-92 cell surface,not retained
same,removal / cleavage of cell-surface mucin,[1],could actively digest Muc
